Assay [1] has as its target Cynomolgus monkey full-length B7H3 on transfected FlpinCHO cells (cynomolgus monkey). The assay is described as follows: FACS on cynomolgus monkey B7H3-transfected FlpinCHO cell pool; negative control.
For assay [2], the target named is Human full-length B7H3 on MCF-7 cells (human) (UniProt Q5ZPR3). The experiment in a line: cell-based or functional assay.
The target is the same in assay [3]. The experiment in a line: FACS on MCF-7 cells, Alexa 647 anti-human secondary.

pEC50: −log10 of the molar value.

In assay [1], hIgG1 isotype (antibody) returned a Maximum MFI of 6.67 MFI. Moreover, the Antibody internalization Maximum MFI in assay [2] is 21 MFI.

Enoblituzumab (MacroGenics) (antibody): in assay [3], the pEC50 is 8.60 and the Maximum MFI was determined as 4640 MFI. In assay [2], this substance gave an Antibody internalization EC50 of 1.95 nM and an Antibody internalization Maximum MFI of 39800 MFI.
